In patent publication US20170267768A1 (University of California, published 2017):

B1: TS1C (scFv)
scFv: QVQLVQSGGGLVQPGGSLRLSCAASGFTFSSYAMHWVRQAPGKGLEWVAVISYDGSNKYYADSVKGRFTISRDNSKNTLYLQMNSLRAEDTAVYYCARASVGATGPFDIWGQGTLVTVSSASTGGGGSGGGGSGGGGSGGGGSSSELTQPPSVSVAPGQTVTITCQGDSLRSYYASWYQQKPGTAPKLLIYGENNRPSGVPDRFSGSSSGTSASLTITGAQAEDEADYYCNSRDSSGTHLTVFGGGTKLTVLGGGSGGC
notes: also called parental clone TS1 (C form)
B2: scFv-4C (scFv)
scFv: QVQLVQSGGGLVQPGGSLRLSCAASGFTFSSYAMHWVRQAPGKGLEWVTVISPHGRNKYYADSVKGRFTISRDNSKNTLYLQMNSLRAEDTAVYYCARASVGATGPFDIWGQGTLVTVSSASTGGGGSGGGGSGGGGSGGGGSSSELTQPPSVSVAPGQTVTITCQGDSLRSYYASWYQQKPGTAPKLLIYGENNRPSGVPDRFSGSSSGTSASLTITGAQAEDEADYYCNSRDSSGTHLTVFGGGTKLTVLGGGSGGC
notes: also called clone 4
B3: scFv TS1 (scFv)
scFv: QVQLVQSGGGLVQPGGSLRLSCAASGFTFSSYAMHWVRQAPGKGLEWVAVISYDGSNKYYADSVKGRFTISRDNSKNTLYLQMNSLRAEDTAVYYCARASVGATGPFDIWGQGTLVTVSSASTGGGGSGGGGSGGGGSGGGGSSSELTQPPSVSVAPGQTVTITCQGDSLRSYYASWYQQKPGTAPKLLIYGENNRPSGVPDRFSGSSSGTSASLTITGAQAEDEADYYCNSRDSSGTHLTVFGGGTKLTVLG
B4: scFv-12 (scFv)
scFv: QVQLVQSGGGLVQPGGSLRLSCAASGFTFSSYAMHWVRQAPGKGLEWVAGISHPGDNTYYADSVKGRFTISRDNSKNTLYLQMNSLRAEDTAVYYCARASVGATGPFDIWGQGTLVTVSSASTGGGGSGGGGSGGGGSGGGGSSSELTQPPSVSVAPGQTVTITCQGDSLRSYYASWYQQKPGTAPKLLIYGENNRPSGVPDRFSGSSSGTSASLTITGAQAEDEADYYCNSRDSSGTHLTVFGGGTKLTVLG

Tests used:
[1] = molecular target: T1, Staphylococcus aureus Protein A (Staphylococcus aureus, UniProt P38507 37-477); assay: Protein A binding measured as in Example 1; TS1C is the reference
Protocol: Protein A binding for multiple samples was determined as follows: scFvs expressed by mammalian cells were obtained from cultures by centrifugation at 4000 g for 15 minutes to remove cells. The scFv titer in the supernatant was determined using Fortebio. Protein A binding was assayed using a 96 well Protein A plate (Protein A 96 well protein purification plate (GE Healthcare: Life Sciences, Protein A HP MultiTrap®) which contains Protein A-conjugated resin in wells with porous bottoms, allowing liquid in the wells to be collected from underneath via centrifugation or suction. Each well of the plate was washed with 1×PBS, and supernatant containing 250 μg of protein was loaded into each well. The supernatant is then separated from the Protein A resin using a vacuum manifold (Whatman®) with 10 mbar of pressure and the flow-through from each well separately collected into empty wells of a standard 96 well plate. The wells of the Protein A plate were then washed with 600 μL of 1×PBS (pH 7.6). To elute the resin-bound Ab, 200 μL of 0.1M acetic acid was added to each well and incubated at room temperature for 3-10 minutes. […]
(§1) The fold improvement in Protein A binding capacity (as compared to TS1C) was measured as described in Example 1.

[2] = molecular target: T2, His6-tagged recombinant human EphA2 protein (human, UniProt P29317 25-534); assay: BLI (Octet Red 96); His6-EphA2 on anti-His sensors; scFv-PEG-DSPE conjugate at 2.5 ug/ml after thermal stress
T2 construct: also called his-tagged recombinant, human EphA2; human EphA2 with c-terminal His6
From the text: (§2) A nucleic acid encoding human EphA2 with c-terminal His6 appended was cloned into expression vector pCEP4 (Invitrogen® # V044-50) and transiently expressed in FreeStyle™ 293 cells (Invitrogen® #K900001) following polyethylenenimine transfection. The His6-tagged recombinant human EphA2 protein was purified from the cell culture medium using Ni-NTA Sepharose™ resin (Quiagen®, USA). Anti-His sensors for the fortéBIO® Octet Red 96 system (fortéBIO®-Pall® #18-5116) were coated with his-tagged recombinant, human EphA2 at concentration of 10 μg/ml protein for 300 sec, and a background run was carried out in PBS for 60 sec. For scFv-PEG-DSPE conjugates, the sensors were then incubated with 2.5 μg/ml (Study 1) or 4.0 μg/ml (Study 2) of the conjugate in PBS, pH 7.4, and the slopes of association curves were determined between 3-13 seconds of incubation, corrected for the buffer-only background, and compared across the variants. ScFv-linked liposomes were incubated with the sensors in PBS at 0.025 mM of liposome phospholipid, the slopes of the association curves were determined between 3-20 seconds of incubation, corrected for the buffer-only background, and compared across the variants.
(§3) Results are shown below in Table 6, in which column A gives scFv identifiers; column B indicates percent yield of scFv/lipopolymer linker conjugates; column C gives percent scFv-conjugate (not liposome-bound) EphA2 binding on-rate; column D gives percent scFv-conjugated-liposome EphA2 binding on-rate; and columns E (Study 1) and F (study 2) give percent antigen binding on-rate remaining in the scFv-conjugate (not liposome-bound) following thermal stress.

[3] = molecular target: T2, His6-tagged recombinant human EphA2 …; assay: BLI (Octet Red 96); His6-EphA2 on anti-His sensors; scFv-PEG-DSPE conjugate at 4.0 ug/ml after thermal stress
From the text: as §2, §3

[4] = molecular target: T2, His6-tagged recombinant human EphA2 …; assay: BLI (Octet Red 96); His6-EphA2 on anti-His sensors; slope of association curve of scFv-PEG-DSPE conjugate; TS1C printed as 100
From the text: as §2, §3

[5] = molecular target: T2, His6-tagged recombinant human EphA2 …; assay: BLI (Octet Red 96); His6-EphA2 on anti-His sensors; slope of association curve of scFv-linked liposomes at 0.025 mM phospholipid; TS1C printed as 100
From the text: as §2, §3

[6] = molecular target: T1, Staphylococcus aureus Protein A; assay: Protein A binding measured as in Example 1, compared to TS1C
Protocol: Protein A binding for multiple samples was determined as follows: scFvs expressed by mammalian cells were obtained from cultures by centrifugation at 4000 g for 15 minutes to remove cells. The scFv titer in the supernatant was determined using Fortebio. Protein A binding was assayed using a 96 well Protein A plate (Protein A 96 well protein purification plate (GE Healthcare: Life Sciences, Protein A HP MultiTrap®) which contains Protein A-conjugated resin in wells with porous bottoms, allowing liquid in the wells to be collected from underneath via centrifugation or suction. Each well of the plate was washed with 1×PBS, and supernatant containing 250 μg of protein was loaded into each well. The supernatant is then separated from the Protein A resin using a vacuum manifold (Whatman®) with 10 mbar of pressure and the flow-through from each well separately collected into empty wells of a standard 96 well plate. The wells of the Protein A plate were then washed with 600 μL of 1×PBS (pH 7.6). To elute the resin-bound Ab, 200 μL of 0.1M acetic acid was added to each well and incubated at room temperature for 3-10 minutes. The plate was placed over a second plate to capture eluate and centrifuged at 100×g for 2 minutes, and 20 μL of 1M Tris, pH 8.0 was added to neutralize the Abs in the eluate. To determine the percentage of Protein A binding, the concentration of scFv remaining in the flow-through was compared to the amount of protein (250 ug) loaded originally.
as §1

[7] = molecular target: T3, murine EphA2 on CT-26 cells (mouse, UniProt Q03145 26-977); assay: CLIA: scFv-decorated fluorescent NTA(Ni) liposomes on CT-26 cells, FACS
T3 construct: whole, on cells
Protocol: The concentration of liposomal phospholipid was then determined after acid digestion using spectrophotometric phosphomolybdate method. Prior to incubation with cells the liposomes were diluted to 0.4 mM phospholipid in Hank's Balanced Salt Solution (HBSS), and NiSO₄ was added to 0.1 mM. The hexahistidine scFvs were diluted into cell culture medium (see below) to the concentration of 25 μg/mL of scFv and mixed with equal volume of the liposome solution (“fluorescent NTA-liposome/scFv mixture”).
By measuring fluorescence of the cells prior to and after incubation/wash with imidazole, which disrupts His6/Ni complexes and thereby releases and removes external (but not internalized) histidine-tagged scFv, the percentage of Ab internalized is quantitated. The test cells (human cancer cell lines OVCAR-3 and U-251 and the murine cancer cell line CT-26) were grown in the adherent state in […] cell culture medium supplemented with 10% FBS, 1× penicillin/streptomycin, and L-glutamine, to 90% confluence and harvested using 0.25% trypsin-EDTA. […] The relative amounts of cell-associated liposomes were evaluated by FACS (Cy5 fluorescence channel). The “binding” amount included both cell surface-bound and internalized liposomes and was proportional to cell fluorescence without imidazole wash. […]

[8] = molecular target: T4, human EphA2 on OVCAR-3 and U-251 cells (human, UniProt P29317 24-976); assay: CLIA: scFv-decorated fluorescent NTA(Ni) liposomes on OVCAR-3 and U-251 cells, FACS
T4 construct: whole, on cells; also called EphA2 receptors
Protocol: To test the anti-EphA2 activity of these variant scFvs, the binding and internalization of liposomes externally decorated with these Abs was assayed on cell lines expressing EphA2. A rapid high-throughput Chelated Ligand-induced Internalization Assay (CLIA) (Nielsen et al., BMC immunology, 2006, 7:24) was used to screen anti-EphA2-scFv-targeted liposomes for binding and internalization assessment. Two cell lines that express high levels of EphA2 receptors, OVCAR-3 and U-251, were tested, as well as a murine EphA2-expressing mouse cell line, CT-26 (to test whether cross-reactivity to murine EphA2 was retained by the engineered scFvs). Via nickel-binding by each scFv's c-terminal His6 tag, the scFvs were bound to fluorescently labeled liposomes comprising an NTA(Ni) conjugated lipid (Dil5-NTA liposomes).
Dil5-NTA liposomes were prepared as follows. The NTA conjugated lipid, DOD-Tri-NTA, was synthesized as described in Huang et al., Bioconjugate chemistry, 2006, vol. 17, p. 1592-1600. […] The concentration of liposomal phospholipid was then determined after acid digestion using spectrophotometric phosphomolybdate method.

T2 sequence (P29317 25-534 limits assumed): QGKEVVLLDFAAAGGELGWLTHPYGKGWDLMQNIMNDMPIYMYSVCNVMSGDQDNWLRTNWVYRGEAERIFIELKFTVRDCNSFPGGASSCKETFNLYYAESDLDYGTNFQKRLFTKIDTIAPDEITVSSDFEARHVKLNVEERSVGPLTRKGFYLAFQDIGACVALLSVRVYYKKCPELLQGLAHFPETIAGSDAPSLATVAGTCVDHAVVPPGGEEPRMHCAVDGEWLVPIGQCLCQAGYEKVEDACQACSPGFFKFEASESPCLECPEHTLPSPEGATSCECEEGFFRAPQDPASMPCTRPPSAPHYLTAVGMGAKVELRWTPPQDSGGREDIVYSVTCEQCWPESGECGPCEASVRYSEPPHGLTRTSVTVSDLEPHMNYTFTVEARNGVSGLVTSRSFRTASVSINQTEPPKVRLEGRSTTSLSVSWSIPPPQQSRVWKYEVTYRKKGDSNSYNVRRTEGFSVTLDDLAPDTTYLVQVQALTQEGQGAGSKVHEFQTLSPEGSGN
T3 sequence (Q03145 26-977): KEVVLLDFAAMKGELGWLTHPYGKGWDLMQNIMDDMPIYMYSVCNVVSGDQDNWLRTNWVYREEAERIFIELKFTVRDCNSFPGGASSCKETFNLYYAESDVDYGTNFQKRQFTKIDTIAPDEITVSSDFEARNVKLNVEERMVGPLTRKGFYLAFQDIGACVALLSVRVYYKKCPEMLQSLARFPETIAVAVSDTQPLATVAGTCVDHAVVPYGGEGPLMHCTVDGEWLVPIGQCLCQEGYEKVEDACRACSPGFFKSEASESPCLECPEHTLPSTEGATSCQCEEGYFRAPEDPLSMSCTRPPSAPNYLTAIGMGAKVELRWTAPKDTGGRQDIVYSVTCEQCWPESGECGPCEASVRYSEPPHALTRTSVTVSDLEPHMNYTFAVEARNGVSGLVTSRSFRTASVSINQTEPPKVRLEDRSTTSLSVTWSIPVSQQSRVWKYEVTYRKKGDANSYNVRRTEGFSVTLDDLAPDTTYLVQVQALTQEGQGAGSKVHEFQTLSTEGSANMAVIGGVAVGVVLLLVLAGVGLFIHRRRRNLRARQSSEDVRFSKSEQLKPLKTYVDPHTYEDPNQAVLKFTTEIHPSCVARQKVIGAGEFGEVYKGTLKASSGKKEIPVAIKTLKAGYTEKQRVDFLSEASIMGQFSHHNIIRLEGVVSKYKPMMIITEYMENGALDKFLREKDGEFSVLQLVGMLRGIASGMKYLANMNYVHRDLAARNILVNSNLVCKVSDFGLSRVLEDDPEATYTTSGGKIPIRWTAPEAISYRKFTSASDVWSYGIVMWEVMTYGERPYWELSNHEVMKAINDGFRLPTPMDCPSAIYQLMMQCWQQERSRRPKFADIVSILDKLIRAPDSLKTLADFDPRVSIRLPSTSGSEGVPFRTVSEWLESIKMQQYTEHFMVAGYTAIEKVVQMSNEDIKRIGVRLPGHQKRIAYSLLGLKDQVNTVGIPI
T4 sequence (P29317 24-976): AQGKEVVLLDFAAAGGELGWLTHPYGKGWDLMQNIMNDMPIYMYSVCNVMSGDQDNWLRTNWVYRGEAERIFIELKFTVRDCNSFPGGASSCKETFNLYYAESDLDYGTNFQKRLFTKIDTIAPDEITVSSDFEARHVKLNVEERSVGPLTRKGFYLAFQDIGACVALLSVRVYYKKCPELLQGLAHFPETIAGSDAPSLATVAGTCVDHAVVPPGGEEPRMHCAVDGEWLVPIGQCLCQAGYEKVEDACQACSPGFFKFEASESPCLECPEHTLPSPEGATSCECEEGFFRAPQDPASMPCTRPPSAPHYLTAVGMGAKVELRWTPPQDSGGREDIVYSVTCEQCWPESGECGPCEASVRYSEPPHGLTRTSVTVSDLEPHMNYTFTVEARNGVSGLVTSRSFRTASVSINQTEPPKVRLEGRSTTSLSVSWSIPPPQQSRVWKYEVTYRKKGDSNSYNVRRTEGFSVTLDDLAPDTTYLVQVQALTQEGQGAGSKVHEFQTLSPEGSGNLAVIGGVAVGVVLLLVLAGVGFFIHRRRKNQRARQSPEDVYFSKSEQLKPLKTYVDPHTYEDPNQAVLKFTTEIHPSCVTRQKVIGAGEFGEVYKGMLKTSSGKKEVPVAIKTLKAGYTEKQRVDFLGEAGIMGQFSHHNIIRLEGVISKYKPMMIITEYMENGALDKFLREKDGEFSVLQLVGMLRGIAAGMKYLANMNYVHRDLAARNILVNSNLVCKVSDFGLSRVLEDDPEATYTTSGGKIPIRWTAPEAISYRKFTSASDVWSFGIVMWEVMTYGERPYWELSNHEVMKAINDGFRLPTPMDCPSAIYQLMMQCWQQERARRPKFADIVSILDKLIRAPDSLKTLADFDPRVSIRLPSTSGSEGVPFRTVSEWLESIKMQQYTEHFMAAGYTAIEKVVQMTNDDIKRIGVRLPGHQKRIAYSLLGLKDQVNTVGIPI

Binder | Fold Improvement in Protein A Binding Capacity [1] [fold] | percent antigen binding on-rate remaining in the scFv-conjugate following thermal stress (Study 1) [2] [%] | percent antigen binding on-rate remaining in the scFv-conjugate following thermal stress (Study 2) [3] [%] | percent scFv-conjugate (not liposome-bound) EphA2 binding on-rate [4] [%] | percent scFv-conjugated-liposome EphA2 binding on-rate [5] [%] | Fold Improvement in Protein A Binding Capacity [6] [fold] | binding result [7] | binding result [8]
B1 | 1 | 25.2 | 13 | 100 | 100 |  |  | 
B2 |  | 8.6 | 5.6 | 97.3 | 118 | 5.8 |  | 
B3 |  |  |  |  |  |  | binds | binds
B4 |  |  |  |  |  |  | no binding | 
